Read-outs that look alike come from different tables or passages of the source.
How the values were obtained:
[1] = target: T1, cynomolgus IL-17RA expressed on cells (cynomolgus); test: FACS; inhibition of biotin-huIL-17A binding; MFI
T1 construct: whole, on cells; CHO cell line over-expressing cynomolgus IL-17RA (FACS); also called cyno IL-17RA; CHO-cynoIL-17RA

[2] = target: T1, cynomolgus IL-17RA expressed on cells; test: FACS; inhibition of biotin-huIL-17A binding; MFI; remark: listed apart in the source
[3] = target: T1, cynomolgus IL-17RA expressed on cells; test: cell-based or functional assay
[4] = target: T1, cynomolgus IL-17RA expressed on cells; test: FACS; inhibition of biotin-huIL-17A binding; MFI; remark: listed apart in the source
Text: The anti-IL-17RA antibodies were characterized. […] Anti-IL-17RA non-clonal hybridomas were selected for sub-cloning based on their performance in the CHO-IL-17RA FACS assay and HFF bioassay.

[5] = target: Human IL-17RA full-length expressed on the surface of cells (human, UniProt Q96F46 33-866); test: cell-based or functional assay

| Binder | MFI [1] | MFI [4] | further results |
| --- | --- | --- | --- |
| IL-17RA human mAb having the heavy and light chain variable sequences (AMH14/AML14) (antibody, IgG2, V domains shown, Fully human, from IgG2 XenoMouse mice; Only variable domains are tied to it in the description; also called AM-14; AML14/AMH14) VH: QVQLVQSGAEVKKPGASVKVSCKASGYTFTRYGISWVRQAPGQGLEWMGWISTYSGNTNYAQKLQGRVTMTTDTSTSTAYMELRSLRSDDTAVYYCARRQLYFDYWGQGTLVTVSS VL: EIVMTQSPATLSVSPGERATLSCRASQSVSSNLAWFQQKPGQAPRPLIYDASTRATGVPARFSGSGSGTDFTLTISSLQSEDFAVYYCQQYDNWPLTFGGGTKVEIK | – | – | MFI [2]: 10; IC50, cynomolgous IL-17A-induced IL-6 production from JTC-12 cells [3]: ~1.2 nM |
| IL-17RA mAb (AMH15/AML15) (antibody, V domains shown, also called AM-15; AML15/AMH15) VH: QVQLVESGGGVVQPGRSLRLSCAASGFTFSSYGMQWVRQAPGKGLEWVAVIWYDGNKKYYADSVKGRFTISRDNSKNTLYLQMNSLRAEDTAVYYCARGRVRDYYYGMDVWGQGTTVTVSS VL: EIVMTQSPATLSVSPGERVTLSCRASQSVSSNLAWFQQKPGQAPRPLIYDASTRAAGIPARFSGSGSGTDFTLTISSLQSEDFAVYYCQQYDNWPLTFGGGTKVEIK | – | – | MFI [2]: 6 |
| IL-17RA mAb (AMH12/AML12) (antibody, IgG2, V domains shown, From IgG2 XenoMouse mice; also called AM-12; AML12/AMH12) VH: QVQLVQSGAEVKKPGASVKVSCKASGYTLTSYGISWVRQAPGQGLEWMGWISTYKGNTNYAQKLQGRVTMTTDTSTSTAYMELRSLRSDDTAVYYCARKQLVFDYWGQGTLVTVSS VL: EIVMTQSPATLSVSPGERATLSCRASQSISSSLAWYQQKPGQAPRLLIYGASTRATGIPARFSGSGSGTEFTLTISSLQSENFAVYYCQQYDNWPLTFGGGTKVEIK | – | 6 | – |
| AMH14/AML14 (hybridoma) (antibody, V domains shown) VH: QVQLVQSGAEVKKPGASVKVSCKASGYTFTRYGISWVRQAPGQGLEWMGWISTYSGNTNYAQKLQGRVTMTTDTSTSTAYMELRSLRSDDTAVYYCARRQLYFDYWGQGTLVTVSS VL: EIVMTQSPATLSVSPGERATLSCRASQSVSSNLAWFQQKPGQAPRPLIYDASTRATGVPARFSGSGSGTDFTLTISSLQSEDFAVYYCQQYDNWPLTFGGGTKVEIK | – | – | IC50 (read off the curve) (IL-17A-induced GRO-alpha production from HFF cells; blocked ligand m20) [5]: ~0.01 µg/mL |
| IL-17RA human mAb (AMH22/AML22) (antibody, IgG2, V domains shown, Fully human, from IgG2 XenoMouse mice; also called AM-22; AML22/AMH22) VH: QVQLVQSGAEVKKPGASVKVSCKASGYTFTRYGISWVRQAPGQGLEWMGWISAYSGNTNYAQKLQGRVTMTTDTSTSTAYMELRSLRSDDTAVYYCARRQLYFDYWGQGTLVTVSS VL: EIVMTQSPATLSVSPGERVTLSCRASQSVSSNLAWFQQKPGQAPRPLIYDASTRAAGIPARFSGSGSGTDFTLTISSLQSEDFAVYYCQQYDNWPLTFGGGTKVEIK | 18 | – | – |
| IL-17RA mAb (AMH1/AML1) (antibody, V domains shown, also called AM-1; AML1/AMH1) VH: QVQLQESGPGLVKPSETLSLTCTVSGGSISNYYWNWIRQSPGKGLEWIGDIYYSGSTNYNPSLKSRVTISVDTSKNQFSLKLSSVTTADTAVYYCARDGELANYYGSGSYQFYYYYGMDVWGQGTTVTVSS VL: DILMTQSPSSLSASVGDRVTITCRASQGIRNDLGWYQQKPGKAPKRLIYAASSLQSGVPSRFSGSGSGTEFTLTISSLQPEDFATYYCLQHNSNPFTFGPGTKVDIK | 11 | – | – |
| IL-17RA mAb (AMH21/AML21) (antibody, IgG2, V domains shown, From IgG2 XenoMouse mice; also called AM-21; AML21/AMH21) VH: EVQLVESGGGSVQPGGSLRLSCAASGFTFSSYSMNWVRQAPGKGLEWVSIISSRSSIIHYADSVKGRFTISRDNAKNSLYLQMNSLRDEDTAVYYCARPKVGGGMDVWGQGTTVTVSS VL: DIQMTQSPSSLSASVGDRVTITCRASQGISNYLAWYQQKPGKFPELLIYAASTLQSGVPSRFSGSGSGTDFTLTISSLQPEDVATYYCQKYNRAPFTFGPGTKVDIK | – | – | MFI [2]: 6 |

Further lines, with some results ahead:

| MFI [1] | MFI [4] | Binder | further results |
| --- | --- | --- | --- |
| 9 | – | IL-17RA mAb (AMH11/AML11) (antibody, V domains shown, also called AM-11; AML11/AMH11) VH: QVQLVESGGGVVQPGRSLRLSCATSGITFSSYGMHWVRQAPGKGLEWVAVIWYDGSNKYYADSVKGRFTISRDNSKNTLYLQMNSLRAEDTAVYYCARDTKDYWGQGTLVTVSS VL: EIVMTQSPATLSVSPGERATLSCRASQSVSSNLAWYQQKPGQAPRLLIYGASTRAAGIPARFSGGGSGTAFTLTISNLQSEDFAVYYCQHYINWPKWTFGQGTKVDIK | – |
| – | 8 | IL-17RA mAb (AMH17/AML17) (antibody, V domains shown, From IgG2 XenoMouse mice; also called AM-17; AML17/AMH17) VH: QVQLVQSGAEVKKPGAAVKVSCKATGYTLTSYGISWVRQAPGQGLEWMGWISAYSGNTKYAQKLQGRVTMTTDTSTSTAYMELRSLRSDDTAVYYCARKQLVFDYWGQGTLVTVSS VL: not shown | – |
| – | 6 | IL-17RA mAb (AMH16/AML16) (antibody, IgG2, V domains shown, From IgG2 XenoMouse mice; also called AM-16; AML16/AMH16) VH: QVQLVQSGAEVKKPGASVKVSCKASGYTFTSYGISWVRQAPGQGLEWMGWISAYNGNTKYAQKLQGRVTMTTDTSTSTVYMELRSLRSDDTAVYYCARKQLVFDYWGQGTLVTVSS VL: EIVMTQSPATLSVSPGERATLSCRASQSISTSLAWYQQKPGQAPRLLIYGTSTRATGIPARFSGSGSGTEFTLTISSLQSEDFAVYFCQQYDIWPLTFGGGTKVEIK | – |
| – | 6 | IL-17RA mAb (AMH13/AML13) (antibody, IgG2, V domains shown, From IgG2 XenoMouse mice; also called AM-13; AML13/AMH13) VH: QVQLVESGGGVVQPGRSLRLSCAASGFTFSSYGMQWVRQAPGKGLEWVAVIWYDGNKKYYADSVKGRFTISRDNSKNTLYLQMNSLRAEDTAVYYCARGRVRDYYYGMDVWGQGTTVTVSS VL: DIVMTQTPLSLSVTPGQPASIACKSSQSLLHSDGKTYLYWYLQKPGQPPQLLIYEVSTRFSGVPDRFSGSGSGTDFTLKISRVEAEDVGVFYCMQSIQLPLTFGGGTKVEIK | – |
| 9 | – | IL-17RA mAb (AMH5/AML5) (antibody, V domains shown, also called AM-5; AML5/AMH5) VH: QVQLQESGPGLVKPSETLPLTCTVSGGSIRSYYWSWIRQPAGKGLEWIGRIYRSGNTIYNPSLKSRVTMSIDTSKNQFSLTLSSVTAADTAVYYCARENYSESSGLYYYYGMDVWGQGTTVTVSS VL: DIQMTQSPSSLSASVGDRVTITCRASQGIRNDLGWYQQKPGKAPKRLIYAASSFQSGVPSRFSGSGSGTGFTLTISSLQPEDFATYYCLQHNSYPPTFGQGTKVEIK | – |

— patent publication US20110081339A1 (Amgen, published 2011)
